Results: the supplement of paper PMC9233669
Fewer inactive variants are shown than the library holds.

Tests used:
[1] = system: biotinyl-Leu-oxazolone; assay: self-aminoacylation, catalytic enhancement (BLO) (fold over background); higher = more active; k-Seq, kA / k0A0; sequences stand for … in GGGAAUGGAUCCACAUCUACGAAUUC…UUCACUGCAGACUUGACGAAGCUG
Procedure, shortened: (§1)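 Each biotinyl-aminoacyl-oxazolone, at 2–1250 μM, was incubated with mutagenized RNA pools (0.43 μM) carrying a 21-nt variable region. The 50 μL reactions contained HEPES/NaCl/KCl/MgCl2/CaCl2 buffer with 5% acetonitrile at pH 6.9–7.0 and ran for 90 minutes at room temperature. After streptavidin capture, RNA was measured by qPCR in triplicate and by Illumina sequencing, and catalytic enhancement was calculated as median kA over the uncatalyzed rate from a pseudo-first-order fit of per-sequence fraction reacted.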

[2] = system: biotinyl-Ile-oxazolone; assay: self-aminoacylation, catalytic enhancement (BIO) (fold over background); higher = more active; k-Seq, kA / k0A0; sequences stand for … in GGGAAUGGAUCCACAUCUACGAAUUC…UUCACUGCAGACUUGACGAAGCUG
Procedure, shortened: as §1

[3] = system: biotinyl-Phe-oxazolone; assay: self-aminoacylation, catalytic enhancement (BFO) (fold over background); higher = more active; k-Seq, kA / k0A0; sequences stand for … in GGGAAUGGAUCCACAUCUACGAAUUC…UUCACUGCAGACUUGACGAAGCUG
Procedure, shortened: as §1

[4] = system: biotinyl-Trp-oxazolone; assay: self-aminoacylation, catalytic enhancement (BWO) (fold over background); higher = more active; k-Seq, kA / k0A0; sequences stand for … in GGGAAUGGAUCCACAUCUACGAAUUC…UUCACUGCAGACUUGACGAAGCUG
Procedure, shortened: as §1

[5] = system: biotinyl-Met-oxazolone; assay: self-aminoacylation, catalytic enhancement (BMO) (fold over background); higher = more active; k-Seq, kA / k0A0; sequences stand for … in GGGAAUGGAUCCACAUCUACGAAUUC…UUCACUGCAGACUUGACGAAGCUG
Procedure, shortened: as §1

[6] = system: biotinyl-Val-oxazolone; assay: self-aminoacylation, catalytic enhancement (BVO) (fold over background); higher = more active; k-Seq, kA / k0A0; sequences stand for … in GGGAAUGGAUCCACAUCUACGAAUUC…UUCACUGCAGACUUGACGAAGCUG
Procedure, shortened: as §1

| Sequence | self-aminoacylation [1] | self-aminoacylation [2] | self-aminoacylation [3] | self-aminoacylation [4] | self-aminoacylation [5] | self-aminoacylation [6] |
| --- | --- | --- | --- | --- | --- | --- |
| AUUCACCUAGGUCUGCGGGUG [Fam2.2 aminoacylation ribozyme variant] | 4.85 | 3.08 | 12.8 | 3.44 | 4.69 | 2.58 |
| AUUCACCUAGGUGACCGGGUG [Fam2.2 aminoacylation ribozyme variant] | 5.29 | 4.8 | 23 | 6.82 | 3.84 | 4.19 |
| AUUCACCUAGGUGAUCGGCUG [Fam2.2 aminoacylation ribozyme variant] | 1.98 | 1.77 | 9.04 | 1.67 | 1.74 | 1.66 |
| AUUCACCUAGGUGAUCGGGUU [Fam2.2 aminoacylation ribozyme variant] | 2.59 | 1.85 | 9.06 | 1.06 | 1.89 | 1.88 |
| AUUCACCUAGGUGAUCGGUUG [Fam2.2 aminoacylation ribozyme variant] | 0.93 | 0.875 | 3.17 | 1.03 | 0.928 | 0.921 |
| AUUCACCUAGGUUAGCGGGUG [Fam2.2 aminoacylation ribozyme variant] | 2.9 | 2.55 | 19.7 | 3.43 | 2.98 | 2.22 |
| AUUCACCUAGGUUAUCGCGUG [Fam2.2 aminoacylation ribozyme variant] | 3.29 | 2.09 | 20.7 | 3.11 | 3.16 | 2.64 |
| AUUCACCUAGGUUAUCGGCUG [Fam2.2 aminoacylation ribozyme variant] | 1.79 | 1.45 | 4.24 | 1.44 | 1.73 | 1.57 |
| AUUCACCUAGGUUAUCGGGUA [Fam2.2 aminoacylation ribozyme variant] | 3.54 | 2.02 | 13.3 | 3.37 | 2.55 | 2.49 |
| AUUCACCUAGUUCAUCGAGUG [Fam2.2 aminoacylation ribozyme variant] | 1.31 | 0.949 | 1.17 | 1.25 | 1.21 | 1.04 |
| AUUCACCUAGUUCAUCGGGCG [Fam2.2 aminoacylation ribozyme variant] | 1.96 | 1.95 | 5.7 | 2.88 | 2.19 | 1.93 |
| AUUCACCUAUGUCAUCGGGGG [Fam2.2 aminoacylation ribozyme variant] | 1.93 | 1.5 | 6.23 | 1.58 | 2 | 1.38 |
| AUUCACCUAUGUCAUCGGGUA [Fam2.2 aminoacylation ribozyme variant] | 2.41 | 1.55 | 1.14 | 1.89 | 1.96 | 1.79 |
| AUUCACCUCGGUCAUCGGGCG [Fam2.2 aminoacylation ribozyme variant] | 3.62 | 2.49 | 19.5 | 2.32 | 3.37 | 3.43 |
| AUUCACCUCGGUCAUCGGGUG [Fam2.2 aminoacylation ribozyme variant] | 9.64 | 4.59 | 53.6 | 7.49 | 7.69 | 5.15 |
| AUUCACCUCGGUCAUCUGGUG [Fam2.2 aminoacylation ribozyme variant] | 4.16 | 2.17 | 29.2 | 3.2 | 3.29 | 2.16 |
| AUUCACCUCGGUCGUCGGGUG [Fam2.2 aminoacylation ribozyme variant] | 2.85 | 2.42 | 11.4 | 2.53 | 2.41 | 3.12 |
| AUUCACCUCGUUCAUCGGGUG [Fam2.2 aminoacylation ribozyme variant] | 5.48 | 2.93 | 26.3 | 5 | 4.1 | 3.3 |
| AUUCACCUGGGACAUCGGGUG [Fam2.2 aminoacylation ribozyme variant] | 6.71 | 4.15 | 55.4 | 5.11 | 7.06 | 4.3 |
| AUUCACCUGGGCCAUCGGGUG [Fam2.2 aminoacylation ribozyme variant] | 6.53 | 4.03 | 35.7 | 4.74 | 6.2 | 5.03 |
| AUUCACCUGGGUCAACGGGUG [Fam2.2 aminoacylation ribozyme variant] | 4.25 | 2.41 | 22.8 | 3.21 | 3.9 | 2.56 |
| AUUCACCUGGGUCACCGGGUG [Fam2.2 aminoacylation ribozyme variant] | 5.41 | 3.43 | 22.4 | 5.36 | 4.54 | 2.97 |
| AUUCACCUGGGUCAGCGGGUG [Fam2.2 aminoacylation ribozyme variant] | 6.66 | 4.33 | 36.7 | 4.72 | 5.26 | 4.26 |
| AUUCACCUGGGUCAUCGGGGG [Fam2.2 aminoacylation ribozyme variant] | 5.65 | 4.25 | 21.4 | 3.71 | 4.26 | 4.1 |
| AUUCACCUGGGUCAUCGGGUG [Fam2.2 aminoacylation ribozyme variant] | 23.2 | 8.95 | 67.8 | 18.2 | 20.2 | 10.4 |
